From patent US20060142189A1

How the values were obtained:
Assay in all cases: cell-based or functional assay
[1] = target: cell-surface L1-CAM of mouse cerebellar granular neurons (mouse) (UniProt P11627)
[2] = target: myc-L1-CAM (myc-tagged rat L1-CAM variant expressed from pMyc-L1-CAM) (rat (variant of rat L1-CAM)) (UniProt Q05695)
[3] = target: myc-L1-CAM-YF (rat (variant of rat L1-CAM)) (UniProt Q05695)
[4] = target: myc-L1-CAM-YH (rat (variant of rat L1-CAM)) (UniProt Q05695)
Sequence of myc-L1-CAM-YH (rat (variant of rat L1-CAM)) (Q05695 other isoform, or with tags, fused parts or gaps mutant): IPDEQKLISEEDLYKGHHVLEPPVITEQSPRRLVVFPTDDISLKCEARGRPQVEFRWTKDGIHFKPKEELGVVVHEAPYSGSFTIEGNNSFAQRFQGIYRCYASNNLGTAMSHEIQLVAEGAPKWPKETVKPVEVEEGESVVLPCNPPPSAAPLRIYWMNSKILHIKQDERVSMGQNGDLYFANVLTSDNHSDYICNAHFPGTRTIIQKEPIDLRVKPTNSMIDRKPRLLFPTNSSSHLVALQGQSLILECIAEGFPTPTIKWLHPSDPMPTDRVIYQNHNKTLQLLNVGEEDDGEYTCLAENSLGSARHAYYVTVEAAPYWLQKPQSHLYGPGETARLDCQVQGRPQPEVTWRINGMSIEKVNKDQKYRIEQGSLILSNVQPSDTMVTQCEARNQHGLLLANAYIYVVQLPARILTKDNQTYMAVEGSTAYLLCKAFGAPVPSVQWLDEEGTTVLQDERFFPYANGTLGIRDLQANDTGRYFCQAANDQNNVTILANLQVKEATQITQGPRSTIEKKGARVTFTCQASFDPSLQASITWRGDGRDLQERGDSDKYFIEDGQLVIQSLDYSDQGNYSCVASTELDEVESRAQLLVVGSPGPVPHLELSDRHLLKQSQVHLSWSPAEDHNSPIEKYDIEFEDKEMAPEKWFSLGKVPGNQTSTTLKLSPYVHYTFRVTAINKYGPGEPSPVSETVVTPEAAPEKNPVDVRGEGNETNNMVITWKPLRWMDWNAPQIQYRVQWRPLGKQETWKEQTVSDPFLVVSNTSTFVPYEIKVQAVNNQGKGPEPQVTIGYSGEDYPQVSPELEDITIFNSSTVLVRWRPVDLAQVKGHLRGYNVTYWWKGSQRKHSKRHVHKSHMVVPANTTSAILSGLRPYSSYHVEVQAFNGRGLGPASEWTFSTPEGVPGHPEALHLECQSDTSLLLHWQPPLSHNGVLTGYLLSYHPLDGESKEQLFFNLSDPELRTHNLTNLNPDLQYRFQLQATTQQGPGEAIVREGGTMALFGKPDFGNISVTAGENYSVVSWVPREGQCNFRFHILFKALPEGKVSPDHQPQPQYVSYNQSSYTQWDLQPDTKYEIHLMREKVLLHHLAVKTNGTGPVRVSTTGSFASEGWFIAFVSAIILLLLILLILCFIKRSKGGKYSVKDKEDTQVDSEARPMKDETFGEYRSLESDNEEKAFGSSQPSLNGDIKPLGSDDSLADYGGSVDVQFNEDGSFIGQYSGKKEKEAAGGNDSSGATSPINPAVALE

Sequence of cell-surface L1-CAM of mouse cerebellar granular neurons (mouse) (P11627 20-1260): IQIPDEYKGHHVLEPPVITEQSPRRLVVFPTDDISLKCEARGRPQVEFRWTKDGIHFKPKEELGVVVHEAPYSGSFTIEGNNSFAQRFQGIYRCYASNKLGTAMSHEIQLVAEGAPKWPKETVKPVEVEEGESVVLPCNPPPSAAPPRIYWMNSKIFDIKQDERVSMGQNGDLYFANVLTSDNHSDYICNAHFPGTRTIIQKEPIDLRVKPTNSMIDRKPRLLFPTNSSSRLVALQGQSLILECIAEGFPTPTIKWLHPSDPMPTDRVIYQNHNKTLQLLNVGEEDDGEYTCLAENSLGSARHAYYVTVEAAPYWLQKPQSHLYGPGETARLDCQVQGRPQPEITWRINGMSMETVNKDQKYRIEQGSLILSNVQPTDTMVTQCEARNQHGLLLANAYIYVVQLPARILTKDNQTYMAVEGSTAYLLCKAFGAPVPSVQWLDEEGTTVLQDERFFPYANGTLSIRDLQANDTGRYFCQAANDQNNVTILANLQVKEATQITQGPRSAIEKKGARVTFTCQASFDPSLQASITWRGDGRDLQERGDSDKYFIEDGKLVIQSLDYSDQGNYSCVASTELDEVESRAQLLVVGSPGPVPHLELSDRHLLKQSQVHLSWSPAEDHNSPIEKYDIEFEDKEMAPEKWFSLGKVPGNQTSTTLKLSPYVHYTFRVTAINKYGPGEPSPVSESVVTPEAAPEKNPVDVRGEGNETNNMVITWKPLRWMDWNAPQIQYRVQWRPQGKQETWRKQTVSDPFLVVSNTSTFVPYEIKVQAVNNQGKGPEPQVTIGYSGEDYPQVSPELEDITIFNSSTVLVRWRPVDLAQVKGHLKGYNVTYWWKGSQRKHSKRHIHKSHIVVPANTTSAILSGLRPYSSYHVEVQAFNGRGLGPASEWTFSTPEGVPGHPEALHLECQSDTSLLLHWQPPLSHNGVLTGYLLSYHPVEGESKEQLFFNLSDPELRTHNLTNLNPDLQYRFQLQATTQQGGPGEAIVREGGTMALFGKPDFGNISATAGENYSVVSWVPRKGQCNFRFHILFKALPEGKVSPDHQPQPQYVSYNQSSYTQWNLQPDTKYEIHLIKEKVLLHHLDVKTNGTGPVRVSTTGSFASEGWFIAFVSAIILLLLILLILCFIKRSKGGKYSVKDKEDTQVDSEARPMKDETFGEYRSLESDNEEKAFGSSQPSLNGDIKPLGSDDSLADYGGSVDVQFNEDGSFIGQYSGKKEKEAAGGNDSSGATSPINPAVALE
Sequence of myc-L1-CAM (myc-tagged rat L1-CAM variant expressed from pMyc-L1-CAM) (rat (variant of rat L1-CAM)) (Q05695 other isoform, or with tags, fused parts or gaps mutant limits assumed): as the sequence (Q05695 other isoform, or with tags, fused parts or gaps mutant) above
Sequence of myc-L1-CAM-YF (rat (variant of rat L1-CAM)) (Q05695 other isoform, or with tags, fused parts or gaps mutant): as above

neurite extension of mouse cerebellar granular neurons on Ng-CAM after 24 h, with AP-YF peptide (30 µg/ml) [1] | neurite extension of mouse cerebellar granular neurons on Ng-CAM after 24 h, with control AP-Scramble peptide [1] | neurite extension on Ng-CAM with AP-YF above the level with control peptide [1] | % of trials with retrograde movement of L1-CAM-bound beads (wild-type, untreated ND-7 cells) [2] | % of trials with retrograde transport of 9E10-coated beads (wild-type L1-CAM) [2] | % of trials with retrograde transport of L1-CAM-bound beads after NGF treatment (100 ng/mL, 1 hour) [2] | % of trials with stationary behavior of L1-CAM-bound beads (wild-type, untreated ND-7 cells) [2] | % of trials with stationary behavior of L1-CAM-bound beads after NGF treatment (100 ng/mL, 1 hour) [2] | % of trials with retrograde movement of L1-CAM-bound beads [3] | % of trials with stationary behavior of L1-CAM-bound beads [3] | % of trials with retrograde movement of L1-CAM-bound beads [4] | % of trials with stationary behavior of L1-CAM-bound beads [4] | Substance
32 µm | 21 µm | 55% | – | – | – | – | – | – | – | – | – | chick Ng-CAM (chick homolog of L1-CAM) (from UniProt Q03696 21-1266) (receptor)
– | – | – | 61.9% | 68.9% | 100% | 28.6% | 18.2% | 37.5% | 62.5% | 92.9% | 0% | ankyrin B (endogenous in ND-7 cells)
